Here are results for 125 sequences from the supplement of paper PMC9112550, “Optimization of the antimicrobial peptide Bac7 by deep mutational scanning” (BMC Biology, 2022).

This data set deals with Escherichia coli TOP10. Kind of data set: shrunken log2 fold change of peptide-encoding DNA abundance (4.5 h post-induction vs induction); higher = less antimicrobial activity (less host growth inhibition). Conditions: time post-induction: 4.5 h; library: site-saturation at positions 5, 18, 19, 20.
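Further: peptides expressed intracellularly from a pBAD plasmid library in pooled LB shake-flask culture, induced with 0.3% L-arabinose, DNA abundance read by NGS, three biological replicates, DESeq2 with apeglm shrinkage.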

Consider RRIRHRPPRLPRPRPRPDSMPRP, for which the “shrunken log2 fold change” value is 0.0959.

For RRIRLRPPRLPRPRPRPSHTPRP, the “shrunken log2 fold change” value is -0.258.

On to RRIRKRPPRLPRPRPRPTPTPRP, for which the “shrunken log2 fold change” value was found to be 0.831. The same measure for RRIRRRPPRLPRPRPRPVWRPRP: 0.436; for RRIRARPPRLPRPRPRPQPLPRP: 0.209; for RRIRKRPPRLPRPRPRPALDPRP: 0.772. For RRIRERPPRLPRPRPRPKTIPRP, the “shrunken log2 fold change” value is -0.232.

Regarding RRIRMRPPRLPRPRPRPAATPRP, the “shrunken log2 fold change” value turned out to be 0.573. Then RRIRIRPPRLPRPRPRPVGEPRP, with -0.0964. Regarding RRIRRRPPRLPRPRPRPGDYPRP, the “shrunken log2 fold change” value was -0.045. The same measure for RRIRPRPPRLPRPRPRPEEFPRP: -0.0108; for RRIRTRPPRLPRPRPRPLVTPRP: -0.227; for RRIRTRPPRLPRPRPRPTEVPRP: -0.199. With RRIRERPPRLPRPRPRPSVPPRP, the “shrunken log2 fold change” value is -0.235. With RRIRCRPPRLPRPRPRPVAQPRP, the “shrunken log2 fold change” value was 0.159. As to RRIRYRPPRLPRPRPRPHVQPRP, the “shrunken log2 fold change” value was -0.0701.

Turning to RRIRGRPPRLPRPRPRPNVSPRP, the “shrunken log2 fold change” value is -0.0528. Then RRIRERPPRLPRPRPRPTMKPRP, with -0.0369; and RRIRQRPPRLPRPRPRPHRHPRP, with -0.284; and RRIRMRPPRLPRPRPRPRVIPRP, with 0.477.

On to RRIRYRPPRLPRPRPRPKTLPRP, for which the “shrunken log2 fold change” value is -0.459. Then RRIRQRPPRLPRPRPRPWTPPRP, with -0.061; and RRIRGRPPRLPRPRPRPPVIPRP, with -0.0488; and RRIRCRPPRLPRPRPRPTDFPRP, with -0.759. Then RRIRWRPPRLPRPRPRPKGTPRP, with -0.0654; and RRIRVRPPRLPRPRPRPYLEPRP, with -0.141; and RRIRPRPPRLPRPRPRPDPGPRP, with 0.0845. The same measure for RRIRMRPPRLPRPRPRPICTPRP: 0.153; for RRIRYRPPRLPRPRPRPNWLPRP: -0.226; for RRIRMRPPRLPRPRPRPVYKPRP: -0.014. In the case of RRIRMRPPRLPRPRPRPWLCPRP, the “shrunken log2 fold change” value was 0.219. With RRIRQRPPRLPRPRPRPAFWPRP, the “shrunken log2 fold change” value worked out at 0.382. Regarding RRIRRRPPRLPRPRPRPSNPPRP, the “shrunken log2 fold change” value is -0.203.

Consider RRIRHRPPRLPRPRPRPGPEPRP, for which the “shrunken log2 fold change” value stood at 1.6. Then RRIRHRPPRLPRPRPRPFQQPRP, with -0.0263; and RRIRKRPPRLPRPRPRPRWDPRP, with 0.118. With RRIRVRPPRLPRPRPRPCLNPRP, the “shrunken log2 fold change” value is -0.193. Then RRIRGRPPRLPRPRPRPKPLPRP, with 0.375; and RRIRTRPPRLPRPRPRPSCQPRP, with -0.21; and RRIRDRPPRLPRPRPRPNDHPRP, with -0.53.

On to RRIRYRPPRLPRPRPRPGDTPRP, for which the “shrunken log2 fold change” value is -0.276. Then RRIRIRPPRLPRPRPRPLQFPRP, with -0.0429; and RRIRRRPPRLPRPRPRPQCIPRP, with -0.0103. The same measure for RRIRTRPPRLPRPRPRPAESPRP: 0.0351; for RRIRNRPPRLPRPRPRPDTEPRP: -0.0108; for RRIRHRPPRLPRPRPRPYTGPRP: -0.304.

On to RRIRQRPPRLPRPRPRPPCSPRP, for which the “shrunken log2 fold change” value came to 0.219. In the case of RRIRQRPPRLPRPRPRPFPCPRP, the “shrunken log2 fold change” value was 0.0349.

With RRIRKRPPRLPRPRPRPGLDPRP, the “shrunken log2 fold change” value is 0.626. Regarding RRIRLRPPRLPRPRPRPICRPRP, the “shrunken log2 fold change” value is -0.13.

Regarding RRIRMRPPRLPRPRPRPAFAPRP, the “shrunken log2 fold change” value is 0.738.

RRIRSRPPRLPRPRPRPSVLPRP: the “shrunken log2 fold change” value was -0.222. Then RRIRNRPPRLPRPRPRPQDRPRP, with 0.0155; and RRIRQRPPRLPRPRPRPANHPRP, with -0.728. On to RRIRARPPRLPRPRPRPDGWPRP, for which the “shrunken log2 fold change” value turned out to be 1.22. The same measure for RRIRYRPPRLPRPRPRPFGPPRP: -0.0934; for RRIRWRPPRLPRPRPRPIMEPRP: 0.0164; for RRIRERPPRLPRPRPRPEWTPRP: 0.0896. Then RRIRARPPRLPRPRPRPFIRPRP, with -0.27; and RRIRDRPPRLPRPRPRPMSCPRP, with -0.00207; and RRIRGRPPRLPRPRPRPICMPRP, with 0.454. The same measure for RRIRERPPRLPRPRPRPLVCPRP: 0.00932. For the sequence RRIRERPPRLPRPRPRPFSNPRP, the “shrunken log2 fold change” value was -0.441. Take RRIRTRPPRLPRPRPRPPIGPRP: the “shrunken log2 fold change” value was determined as 0.0445. Then RRIRLRPPRLPRPRPRPKSSPRP, with 0.0397; and RRIRRRPPRLPRPRPRPTMFPRP, with 0.0275. The same measure for RRIRRRPPRLPRPRPRPAYQPRP: -0.289. The same measure for RRIRRRPPRLPRPRPRPNWLPRP: 0.121; for RRIRFRPPRLPRPRPRPHITPRP: -0.734. Turning to RRIRKRPPRLPRPRPRPHSPPRP, the “shrunken log2 fold change” value came out at 0.16. With RRIRHRPPRLPRPRPRPCWFPRP, the “shrunken log2 fold change” value was -0.499. Then RRIRKRPPRLPRPRPRPIFWPRP, with 0.313. As to RRIRLRPPRLPRPRPRPDTWPRP, the “shrunken log2 fold change” value is 0.0224.

Consider RRIRWRPPRLPRPRPRPNYSPRP, for which the “shrunken log2 fold change” value was -0.15.

Take RRIRMRPPRLPRPRPRPYKEPRP: the “shrunken log2 fold change” value is 0.0136. In the case of RRIRARPPRLPRPRPRPVMAPRP, the “shrunken log2 fold change” value was 0.567. Then RRIRRRPPRLPRPRPRPGWPPRP, with 0.858; and RRIRRRPPRLPRPRPRPISYPRP, with 0.0496; and RRIRGRPPRLPRPRPRPGVCPRP, with 0.892. For the sequence RRIRARPPRLPRPRPRPHCFPRP, the “shrunken log2 fold change” value turned out to be 0.36. Consider RRIRVRPPRLPRPRPRPQSVPRP, for which the “shrunken log2 fold change” value was -0.0666. Then RRIRIRPPRLPRPRPRPQWTPRP, with -0.0472.

For the sequence RRIRVRPPRLPRPRPRPSSVPRP, the “shrunken log2 fold change” value was -0.529.

On to RRIRGRPPRLPRPRPRPTPQPRP, for which the “shrunken log2 fold change” value is 1.05.

Take RRIRMRPPRLPRPRPRPMQMPRP: the “shrunken log2 fold change” value was determined as 0.671.

On to RRIRERPPRLPRPRPRPWVFPRP, for which the “shrunken log2 fold change” value is -0.0105. In the case of RRIRVRPPRLPRPRPRPGLVPRP, the “shrunken log2 fold change” value is 0.807. As to RRIRDRPPRLPRPRPRPEMCPRP, the “shrunken log2 fold change” value was determined as 0.0536. Consider RRIRKRPPRLPRPRPRPIPEPRP, for which the “shrunken log2 fold change” value amounted to 0.163. Then RRIRWRPPRLPRPRPRPCCIPRP, with 0.0413; and RRIRIRPPRLPRPRPRPKIRPRP, with -0.0911. Take RRIRLRPPRLPRPRPRPIWCPRP: the “shrunken log2 fold change” value was -0.0514.

Consider RRIRCRPPRLPRPRPRPVDIPRP, for which the “shrunken log2 fold change” value was -0.241. Then RRIRHRPPRLPRPRPRPIVIPRP, with -0.158; and RRIRGRPPRLPRPRPRPCGYPRP, with 0.216; and RRIRTRPPRLPRPRPRPPMIPRP, with -0.44. Turning to RRIRHRPPRLPRPRPRPCACPRP, the “shrunken log2 fold change” value was -0.176. For RRIRRRPPRLPRPRPRPPNPPRP, the “shrunken log2 fold change” value stood at 0.691. Then RRIRCRPPRLPRPRPRPNMIPRP, with -0.829; and RRIRLRPPRLPRPRPRPIWFPRP, with 0.0419; and RRIRERPPRLPRPRPRPVRSPRP, with 0.0119. As to RRIRHRPPRLPRPRPRPPRAPRP, the “shrunken log2 fold change” value stood at 0.667. Then RRIRIRPPRLPRPRPRPMMVPRP, with -0.00145; and RRIRKRPPRLPRPRPRPSNKPRP, with 0.0208. Then RRIRQRPPRLPRPRPRPRWAPRP, with 0.144. The same measure for RRIRRRPPRLPRPRPRPFNPPRP: -0.277. Regarding RRIRMRPPRLPRPRPRPNDGPRP, the “shrunken log2 fold change” value was -0.0703.

For the sequence RRIRYRPPRLPRPRPRPGKVPRP, the “shrunken log2 fold change” value was -0.204. The same measure for RRIRARPPRLPRPRPRPICFPRP: 1.21; for RRIRKRPPRLPRPRPRPISLPRP: 0.00252.

With RRIRGRPPRLPRPRPRPEAKPRP, the “shrunken log2 fold change” value was 1.76. The same measure for RRIRKRPPRLPRPRPRPTANPRP: 0.863; for RRIRFRPPRLPRPRPRPSERPRP: -0.0251; for RRIRLRPPRLPRPRPRPMFVPRP: -0.354. For RRIRGRPPRLPRPRPRPFKNPRP, the “shrunken log2 fold change” value was 0.243. Consider RRIRKRPPRLPRPRPRPVYMPRP, for which the “shrunken log2 fold change” value is -0.082. With RRIRERPPRLPRPRPRPQTCPRP, the “shrunken log2 fold change” value is -0.0436.

RRIRHRPPRLPRPRPRPMVAPRP: the “shrunken log2 fold change” value stood at 0.195. The same measure for RRIRARPPRLPRPRPRPCWIPRP: -0.197.

Regarding RRIRPRPPRLPRPRPRPDNGPRP, the “shrunken log2 fold change” value was -0.332.

Consider RRIRKRPPRLPRPRPRPGHNPRP, for which the “shrunken log2 fold change” value is -0.0457.

As for RRIRCRPPRLPRPRPRPCQDPRP, the “shrunken log2 fold change” value is -0.178.

Take RRIRGRPPRLPRPRPRPRKGPRP: the “shrunken log2 fold change” value was 0.148. As to RRIRQRPPRLPRPRPRPDNLPRP, the “shrunken log2 fold change” value is -0.348. For the sequence RRIRLRPPRLPRPRPRPHWYPRP, the “shrunken log2 fold change” value is -0.128.
